Assay [1] concerns human proteins on HuProt Human Proteome Microarray. As to the kind of experiment: HuProt Human Proteome Microarray, off-target human proteins. The assay is classed as binding. The arrangement: key to Z Score: Z = (F635 − mean F635 of all spots) / SD; average of duplicate spots; key to S Score: difference between this protein's Z score and the next-ranked protein's. The text has this:
(§1) The HuProt™ Human Proteome Microarray provides the largest number of unique, full-length, individually purified human proteins on a single microscope slide. It provides >21,000 unique human proteins, isoform variants, and protein fragments—covering 16,794 unique genes. This includes 15,889 of the 19,613 canonical human proteins described in the Human Protein Atlas, with broad coverage across protein subclasses. This allows thousands of interactions to be profiled in a high-throughput manner. The full-length recombinant proteins are expressed in the yeast S. cerevisiae, purified, and printed on glass slides in duplicate along with a set of control proteins (GST, BSA, histones, IgG, etc.). The full list of the different proteins included in the HuProt™ Human Proteome Microarray as used in this Example is provided as “List B” in the Research Disclosures publication (ISSN 0374-4353, Questel Ireland Ltd) with database numbers 707018, 707019 and 707020, each entitled “Large scale protein arrange target protein identities” and each digitally published on 27 Jan. 2023, the contents of each of which are incorporated herein by reference in their entirety, fo the purposes of the disclosure of the proteins defined by “List B”. “List B” begins in Research Disclosures publication 707018, is continued in Research Disclosures publication 707019, and concludes Research Disclosures publications 707020, and so the three publications are to be read consecutively as a single disclosure of the “List B” proteins. The HuProt™ microarray is not restricted to a particular type of surface coating, although the default is glass coated with ultrathin nitrocellulose film for the non-covalent, yet irreversible, capture of active proteins to the surface.
(§2) Samples of humanised 7B1F3 and mouse 7B1F3 antibodies were analysed for binding specificities on HuProt™ human proteome arrays. A peptide with the sequence TDVLNQSKPVTL (“Peptide 3”) was added to the arrays at 0.1 mg/ml as a control.
(§3) After blocking, the arrays were probed with the antibody samples (0.1 μg/ml) at room temperature for 1 hour. Then the arrays were washed with TBST for 10 min×3 and probed with Alexa647-anti-human IgG Fc or Alexa647-anti-mouse IgG secondary antibodies under conditions optimized by CDI Labs for signal detection.
(§4) • Non-specific hits that directly bind to the secondary antibodies were eliminated from the analysis of the samples. • CDI software was used to quantify the specificity of each individual sample to specific proteins on the array based on Z Scores. • Z score is the average Z score of the duplicate spots of a given protein (each protein is printed in duplicate on a HuProt™ array). The Z score of each spot on a given array is calculated according to the algorithm below:
(§5) Z=[F635−F635(avg)]/F635(std) • F635(avg) and F635(std) are the average and standard deviation of the F635 values of all spots on the array, respectively. • S score is the difference of the Z Scores of a given protein and the one ranked next to it. If the S score of the top hit is >3, the antibody is considered to be highly specific for the top hit. • F635 is the average foreground signal intensity of 2 replicate spots of a given protein in the detection channel (635 nm). • B635 is the average background signal intensity of 2 replicate spots of a given protein in the detection channel (635 nm).

The target in a further assay is Peptide 3 ([…]) (Human cytomegalovirus, UniProt P69332). Kind of assay: HuProt Human Proteome Microarray, control peptide. The assay is classed as binding, HCMV.
Description: as §1, §2, §3, §4, §5

For assay [2], the system named is HCMV infected human lung tissue. As to the kind of experiment: Immunohistochemistry (IHC) on HCMV infected human lung tissue and controls. Particulars: HCMV positive control slide, FIG. 12. Here is the method: Cytomegalovirus (CMV) control slides containing CMV positive lung tissue and CMV negative myometrium (product number #3240A) were obtained from Newcomer Supply Inc., Middleton, WI 53562-2579, USA. Tissue micro-arrays (TMAs) were obtained from US Biomax Inc., Derwood, MD 20855, USA, and included tumor tissues #BR1008b, #BS17016c, #BCN721b and normal tissues #FDA662a and heart tissues #HEN241a.
The paraffin sections were sequentially immersed into a. 100% xylene three times (5 min each); b. 100% ethanol twice (2 min each); c. 95% ethanol twice (2 min each). The slides were rinsed twice in water for 5 min to remove ethanol. […], the slides were immersed in 3% H2O2 for 5 minutes and washed thereafter twice (2×) with distilled water. The slides were then immersed in the working citrate buffer (pH 6.0) and covered with a lid. The buffer was heated in the microwave until it had boiled, and then kept in the steamer for 15 min.
The sections were cooled at room temperature for 30 min and washed with PBS. 5% BSA blocking solution was then added to the HIER treated samples and they were incubated at 37° C. for 30 min. […] Digitized pictures were taken by Olympus VS120 scanner and analyzed by using OlyVia 3.2 software (Olympus Corporation, 20101 Tokyo, Japan) by senior Pathologist.

[3] abbreviates: Table 9, top hit Peptide 3, antibody 0.1 μg/ml.

B1: 7B1F3: mouse IgG1 kappa antibody against US28 ECD1 Peptide-N; VH SEQ ID NO: 211, VL SEQ ID NO: 213 (antibody, V domains shown)
VH: EVQLQQSGAELAKPGASVKMSCKASGYTFTNYWMHWVKQRPGQGLEWIGYVNPRTGYTEYNQKFKDKATLTADKSSRTAYMQLSSLTSEDSAVYSCARILNGTGFAYWGQGTLVTVSA
VL: DIVLTQSPSSLTVSVGEKFTMSCKSSQSLLYSSNQKNYLAWYQQKPGQSPKLLIYWASTRESGVPDRFTGSGSGTDFTLAISSVKPEDLAIYYCQQYYSFPLTFGAGTKLEIK
modifications: Mature form of VH sequence of 7B1F3, without the leader sequence; Mature form of VL sequence of 7B1F3, without the leader sequence
For the molecule B1, the F635 came to 10020.5 in assay [1] (Protein: AGAP2); 3312 in assay [1] (Protein: DNAJB2); 2701.5 in assay [1] (Protein: EXD2); 2264 in assay [1] (Protein: SYNCRIP); 3231 in assay [1] (Protein: TRIM33); 49972 with Peptide 3 ([…]) (Protein: Peptide 3, antibody 0.1 μg/ml). The “S Score” value is 15.511 in assay [1] (Protein: AGAP2); 0.378 in assay [1] (Protein: BYSL); 0.353 in assay [1] (Protein: CCDC97); 0.235 in assay [1] (Protein: DNAJB2); 1.271 in assay [1] (Protein: EXD2); 2.911 in assay [1] (Protein: FBXO2). Further, the “S Score” value is on record as 1.073 in assay [1] (Protein: LASP1); 0.157 in assay [1] (Protein: SYNCRIP); 1.539 in assay [1] (Protein: TRIM33); 116.095 with Peptide 3 ([…]) (Protein: Peptide 3); 116.095 with Peptide 3 ([…]) (setting [3]). The “Z Score” value in assay [1] (Protein: AGAP2) turned out to be 28.997; in assay [1] (Protein: DNAJB2) it was 9.502; in assay [1] (Protein: EXD2) it was 7.728; in assay [1] (Protein: SYNCRIP), 6.457; in assay [1] (Protein: TRIM33) it was 9.267; with Peptide 3 ([…]) (Protein: Peptide 3), 145.092. In addition, the “Z Score” value in the assay with Peptide 3 ([…]) (setting [3]) stood at 145.092. Further, the “Peptide 3 Signal” value with Peptide 3 ([…]) (Table 9, antibody 0.1 μg/ml) stood at 49972. Further, in the assay with Peptide 3 ([…]) (Table 9, antibody 0.1 μg/ml), the “Top Hit” value is reported as “Peptide 3”. In the assay with Peptide 3 ([…]) (Table 9, top hit, 65535 is the saturation signal intensity), the Signal came to 49972.

B2: 13-5G6-1D3 rAb: recombinant antibody product of US28-13-5G6-1D3 produced in HEK293-F cells (antibody)
heavy: EVKLVESGGGLVQPGGSLRLACATSGFTFTDYYMSWVRQPPGKALEWLGFIRSKANGYTTEYSASVKGRFTISRDNSQSILYLQMNTLRSEDSATYYCARDERRTAWLAYWGQGTLVTVSAAKTTPPSVYPLAPGSAAQTNSMVTLGCLVKGYFPEPVTVTWNSGSLSSGVHTFPAVLQSDLYTLSSSVTVPSSTWPSETVTCNVAHPASSTKVDKKIVPRDCGCKPCICTVPEVSSVFIFPPKPKDVLTITLTPKVTCVVVDISKDDPEVQFSWFVDDVEVHTAQTQPREEQFNSTFRSVSELPIMHQDWLNGKEFKCRVNSAAFPAPIEKTISKTKGRPKAPQVYTIPPPKEQMAKDKVSLTCMITDFFPEDITVEWQWNGQPAENYKNTQPIMDTDGSYFIYSKLNVQKSNWEAGNTFTCSVLHEGLHNHHTEKSLSHSPGK
light: DVLMTQTPLSLPVSLGDQASISCRSSQSIVHSNGNTYLDWYLQKPGQSPKLLIYKVSNRFSGVPDRFSGSGSGTDFTLKISRVEAEDLGVYYCFQGSHVPTWTFGGGTKLEIKRADAAPTVSIFPPSSEQLTSGGASVVCFLNNFYPKDINVKWKIDGSERQNGVLNSWTDQDSKDSTYSMSSTLTLTKDEYERHNSYTCEATHKTSTSPIVKSFNRNEC
Consider B2, for which the “IHC staining of HCMV infected cells in lung tissue” value in assay [2] is “strong cytoplasmic staining”.
